In publication PMC9833669:

Target: recombinant extracellular domain of the human AXL protein (tyrosine protein kinase receptor UFO) (human) (UniProt P30530)
Experiment: BLI

Q: How did the Kd turn out when “GST-VP1u^(1-227aa) (glutathione S-transferase fused to the B19V VP1 unique region) (from UniProt Q9PZT0 1-227) (domain or fragment)” was run?
A: Its Kd is 103 nM.
